Results taken from a protein production outcome set (Wang et al. 2014).

Test: label from the status in PepcDB records

Row | Sequence | protein production
1 | NVGVFVLMHGDSTASSMLKTAQELLGTSIGTAMNMPLTMEVQTMYEQLRNQVITQKESLNNGILLLTDMGSLNSFGNMLFEETGIRTKAITMTSTMIVLEAIRMASVGRSLEDIYQNIQLSFESVVREQFRSSLQK | not failed
2 | MVLVLDFGSQYTRLIARRLRELRAFSLILPGDAPLEEVLKHRPQALILSGGPRSVFDPDAPRPDPRLFSSGLPLLGICYGMQLLAQELGGRVERAGRAEYGKALLTRHEGPLFRGLEGEVQVWMSHQDAVTAPPPGWRVVAETEENPVAAIASPDGRAYGVQFHPEVAHTPKGMQILENFLELAGVKRDWTPEHVLEELLREVRERAGKDRVLLAVSGGVDSSTLALLLAKAGVDHLAVFVDHGLLRLGEREEVEGALRALGVNLLVVDAKERFLKALKGVEDPEEKRKIIGREFVAAFSQVARERGPFRFLAQGTLYPDVIESAGGHGAAKIKSHHNVGGLPEDLEFELLEPFRLLFKDEVRELALLLGLPDTLRLRHPFPGPGLAVRVLGEVTEERLEILRRADDIFTSLLREWGLYEKVAQALAVLTPVRSVGVAGDERKYGYVLALRAVTTEDFMTADWARLPLEFLDEAARRITRRVPEIGRVVYDLTSKPPATIEWE | not failed
3 | GSSGSSGMASTFTSDTLPADHKAAIRQMKHALRAQLGDVQQIFNQLSDDIATRVAEINALKAQGDAVWPVLSYADIKAGHVTAEQREQIKRRGCAVIKGHFPREQALGWDQSMLDYLDRNRFDEVYKGPGDNFFGTLSASRPEIYPIYWSQAQMQARQSEEMANAQSFLNRLWTFESDGKQWFNPDVSVIYPDRIRRRPPGTTSKGLGAHTDSGALERWLLPAYQRVFANVFNGNLAQYDPWHAAHRTEVEEYTVDNTTKCSVFRTFQGWTALSDMLPGQGLLHVVPIPEAMAYVLLRPLLDDVPEDELCGVAPGRVLPVSEQWHPLLIEALTSIPKLEAGDSVWWHCDVIHSVAPVENQQGWGNVMYIPAAPMCEKNLAYAHKVKAALEKGASPGDFPREDYETNWEGRFTLADLNIHGKRALGMDV | not failed
4 | MLDRLRFPHPWLSLTLFVMWQFLSDGISGGSIVLGLILAWIIPLMTQGFWPDPPTLLKAWKTPAYLLRVLWDIVVASVDVARLILSPRAPRPMFICYTLELTDPLAISILASTISLTPGTVSADVSDDNTLLLIHALDAEDEQEVIDTIRNRYEKPLLEMFQ | failed
5 | MKIVILGAGRVGSTVAESLASESNDITVVDLVRNRLSLLQERLDLRTVVGSASHPDIMIQAGMEDADMILALTGSDETNLVACKLAASMFNTPTRIARIRTVDYLDHPDIFSRENFCVDFAICPERILTKYIEKLIEFPGALQVLDFASGKVSLVAVKAIRGGPLIGRQLKELRRHVPNLDTRVAAIFRHNHPIIPEGSTIVEEGDEVFFIASSSDIRAVMGELRRMDKSVRRVMIAGGGRIGRRLAEVLQQSHQVRIIERDIKVCESLTQNLHNTLILHGNVTDEELLESENISEMDIFCALTDDEENNIMAALMAKRMGARKVIALINRSMYVDLMQDSGIDIAISPAQVTIGSLLAYVRQGDVAVVHSLRRGAAEALELVAHGDTRSSRVVGRKIEEIKLPRSTTIGAIVRGLPPGDVYRNLSEQEEDSILAQWKQAQVIIAHHDTVIEQNDHVILFVVNKKMVRQVEKLFQVNVGFL | failed
6 | MMHSTVQHGGNKSGKSNVWANTNLAKTVAAVDEFKFGFPSGGLTTVSNKWWGRAEKGGREDGGGENTENGHVAACDETQNSLVAIRKRIAEEGREAVELGLHQGFGSKRPGKRDQALLFQIFNSAMPKDWVTPDSS | failed
7 | MHVLTLDLAPVTPKDAPLLHRVFHLSPSYFALIGMELPTLEDVVRDLQTLEVDPRRRAFLLFLGQEPVGYLDAKLGYPEAEDATLSLLLIREDHQGRGLGRQALERFAAGLDGVRRLYAVVYGHNPKAKAFFQAQGFRYVK | failed
8 | MADNTLHSSARANWLERRFALRSRGGTLRTECLAGITGFLAAAYLLVVIPGLLAIGGMDKGAATTGTILVFVVGSLLMAFYANLPFIVGPGIGGSVLVGVTLAGSEGIGWQTGLGIACWSGILFFLLTRFGLREVVTRSVPQSIKLGLTASIGLFVAVLGFRNAGLVLANAKTNALMLGDFLAPGALVALCGLFLAIALQARKVPGAILWAILCATLVGIPFGVTKLPTHFIDAPHSLAPVLGQVDLLGALNIAFLPFLFVFFASEFFSTMGTTLAVGGEAGLLDEEGNMPQINRPFMVDSIAAALGPWLGIPAATALIESSAAAEAGGKTGLTALSAAVMFLLMLLFTPVALMIPKEATAPALILIGLNMFSGLRKVDLANFTDGLPVLMMVMITLIANSFGTGIAGGLLFYIVIKAIAGKWREIPIGLWVLAVPLVYYFATLVRH | failed
9 | MSVNDTGHSDNYTWNRQVYHRLKLALSLGLRRQLFLAVCDDLHLRNQVAARLHSTLAYPVGQVLYQSLDGKEASTSAYPRLVTLRLNLNEPNPIAQINQWLANYPPPIVGASKDNPGKPLPIPTFQLVGVEQLTKQTVASQRLFLHYLRLSEQFFAAQESSRFLESSVLLWVSRPWLSAIQQSAPQFWRWRTGVFVFAGEPTPTTQNSGHPERFSNSRSVKLGNLEQSALDELSMEGEVRSPSTTEFNFGDEVSLPTEILGNHPQPKEETPPLISELPPTQQKPQELTVRSSAANSSSLLSLSHVSQELTDLVLATINTKISSEAEDDWQPQELLLEIEELHSQSASGEILAAAYHQLGNLYRLRIEQGQSTLEDLMVAIIAYQESISYDENSPQLPDILNDLGTLYWMLYRTPPNLEEGQTYIEQGIEFYELALKIISPETHPDTYARVHNNLGTAYGDLARFASPAENWQQAVVSYSKALLHRTVESDPLKYAACQNNLGTAYWHLAQYNQPVVHLKKAIASYKQSLAHYNPQDEPLKYGMIQNNVGTAYWNLAQYEQPGENLQLAIDVYSEALKYRTAAMVPNACAATQNNLGTAYWHLANLPQTTKDVRQKLLILCINAYEEAIALAHSLSNVSLSFDLFATHNNLGLAHYQLVTDNYFSGDKGRRSHHLEAALDNHLQALNGLSKQPEAYQATFAYVVKTVRAFHNELGIQGQNLALSKVPGHLLPEILPKL | failed
10 | MQWRNTSSRYGVFSLFLHWGSALVVFGLFGLGLWMRELSYYDPWYHPAPALHKSIGILLAIALLVRIVWRFVSPPPPAPANHGPLTRVASKLGHLALYGLLLAVIVAGYLISTADGEPISVFGWFSVPATLSGLPDQADVAGEIHLYLAWALVVFAVLHALAALKHHFVDRDPTLKRMLGRSSNDQQPR | not failed
11 | TEDSLMPEEEFLRRNKGPVSIKVQVPNMQDKTEWKLNGQGLVFTLPLTDQVSVIKVKIHEATGMPAGKQKLQYEGIFIKDSNSLAYYNMASGAVIHLALKER | not failed
12 | MRNLRKDIVSRSSVGSIQIHGAKTHNLRDVTVCIPKHALVGVAGVSGSGKTSLVSTLAVGAQQAVSSLFPAFVQARLNTLEPGLVDGLQGLTFTAIVGQKKFSRNARSSVSTASGIAPYLRLLFSRSGSPSAGYSPSYSPNDPRGMCMDCSGLGYVDDIDLQELIAPDRSLNEGAVRFPSFEPGTYRWKRLVCSGLFDPDVPWKELPEASRKLLLHGQGVRLERPLTGYPKHGIFDGIIPRLKASYLEKANAKTTEKEDAALRRIVKRVVCPHCHGQRINEAARASRIEGLNIAEASHLSIDECIAFIKTITDEITEAPRQAVLARLNNMRDIGLGYLSLDRPTDTLSGGEAQRLRLVSLLDAPITDATFVMDEPSSGLHPADIERLLRSLRKLRDSGNTVIIVEHNLQVLAACDHVVELGPGAGDDGGRVLFEGSPRSLTRSDTPTGKALRAGIQLNRRSRPATDVIEVTHARCNNLGDVSVSFPVGALTVVSGVAGSGKSSLASALAQQHPEVTIIDQLPLAASSRSSILTALGLESPIREAFSKISGLTTSWFSANEKGACPLCKGRGTTHVDMAFMDDVQTPCERCGGRKFNETTMAVRLPMGSLNPTIADVLDSGLNQVSELYATQDDVLTVISLLQQVGLGYLTLGRTLNTLSGGELQRIKLVQFLKEHREEQESVLVLDEITTGLHPKDVEQLIQFLRRLSERGATAIAIDHNPGLISQADYNIDLGPGAEAAGGTVVFSGTAQGLADCPESTTGKWLHKLNCSSSGVEQVP | failed
13 | MDLKGWISKKSSNVSYEKIKYEFSNVKYSVDHGRLEILHGIKGILLPKTITVIMGPSGSGKTTLLNILSMKVTEGVEGDFLINDMSRMKNIKRHMGYVLQDDYFFSRLTVYETIEFTAKLKLDIRDKKKLNELVHSVLDIMSLTHVKDTIVGDAFIRGISGGQRKRLSIANEILSNPPLLLMDEPTSGLDSSSALSLVECIQRIAQTSNTTIISSLHQPSSQVFSKFDRLIAITNGYIIYHGKTTDLNKYLKKVGFICPYGWNVADYLMDILSNKKFEAILIDNYNKYLHFDSDVGYYMNVKAIDSKIIHDDYDSILEKTNQSISKNSQTNNKSSTNLSSINKSPILSTQENKTREHDILKFQAVELLISLQENKTPYIRQNFFLLIRGLKKIITDEITIIKVIDLVVILTLFGVLWLHTFKEETEEGIIDTIGAIFFILSYWTFYPAYLSLYSFPSEREVIAKERNMKTFQVSNYFLSKLLAEFIYFFMIIAFWILVTHLILYGTLKIGIYLSYAFITLLNALISSSLGYFISTLFDNFSKAVSFLSVVLLTMTLTNGFYVEISKLDVPFRYLQWLSYQTYSASVLAKIKFDDALIKCSPDNNSLPCKNNGFFPGEIIVQKRFATLHISISILILICFYSVIKTFTYVSLRWSQALKMK | failed
14 | MAEQKNHNNELNVEDALTQSEAFLVKNKKAIIGAVVAVIVIVAGAILYKNFYAEPREEKAQAALFKSEQYFEQSAYEQALNGDSIGSIGFLKVADQFSGTKAANLAKAYAGICYQNLGKYEEAIKALDGFSGDDQMVAPAIQGAIGNCYAQLGQLDKATSALLKAADHADNSTLSPIFLLQAGEILMKQGKNEEAVKAFTKIKDKYFQSYQAMDIDKYIEQAKLLKK | failed
15 | MAKDKTSRKAPMGSGRDALMQAFREAQRPLRLDMLLRILGLHRKEKRTLEESLEALQAEGRILRLRGGAWGLTDHMKMVTGTLQVQRTGMGFVLPEDRRRTDIYVHPTQMGEAWHGDKVVVVLLPGGRGRNPEGRIVRILERGLKEMPARVVKRMGRQGLLCRAADARIKVHFLVDVTGLEGKPQKDDILVVSPGERVEDGLWAATAVRHLGSEDDVSVQERLVKINHGVPTEFPVPVLEEAATLPPAPGGGDFADRIDLRHMEFVTIDGARARDFDDAICVEEQGKGWRLWVAIADVSHYVRPGSAMDREALERSNSYYFPQSVEPMLPEALSNGLCSLNPRVPRLAMVAEIYFFGEGSPGKCKFYPAVIESKARLTYGQVNRALLLGDEEERLVLRPVLPMLEQAEKLARVLHQRRRERGSLDFDLPEPEIAFNIYGETVDIRRKVRHFGHQIVEEFMIAANEAVARFLTEKEADFLYRVHPEPEPEKLSALFKVLAGTDIAQGLPREASAGALQTVLQKAHGSAQEFLISRLTLRTMMQARYSPEHEGHFGLASACYCHFTSPIRRYADLVVHRALKRALGGDPGPTPAGGKLVAIADQLSQHERKAMEAEREILKRLTVLLLRSRVGETLTGVISSILDFGFFVELNEVLADGMVRLSSLDDDYYAFIPERQELRGERTGRTFRLGQQVKVRLADVNVGRLEVNLELVREEGDDTPVPTRRRSAASGRDGSGRDGSGRGGRGRSRHDATPRVKASPDASPEVSADGDMPDGDRLPPWIRAATEEDDPRDTTRTRRRRDDDASSRDGGDRRRGRSRNEGARGAGNPARGKAPRDGAGGDRKKGDGRDGKDGQAGGKPAGKGQSRKGKASSHRKGQGRVKKSDE | failed
16 | MALPIIVKWGGQEYSVTTLSEDDTVLDLKQFLKTLTGVLPERQKLLGLKVKGKPAENDVKLGALKLKPNTKIMMMGTREESLEDVLGPPPDN | failed
